Test results published in patent US20190249141A1.

Legend:
[1] = target: recombinant murine CD40L (M112-L260) with N-terminal HA tag (murine); experiment: loading of HA-tagged CD40L on anti-HA antibody microbeads; protein in the supernatant (A280) measured before and after incubation
[2] = target: CD40 on mouse splenic B cells (mouse) (UniProt P27512); experiment: cell-based or functional assay
UniProt P27512, sequence (P27512 20-289): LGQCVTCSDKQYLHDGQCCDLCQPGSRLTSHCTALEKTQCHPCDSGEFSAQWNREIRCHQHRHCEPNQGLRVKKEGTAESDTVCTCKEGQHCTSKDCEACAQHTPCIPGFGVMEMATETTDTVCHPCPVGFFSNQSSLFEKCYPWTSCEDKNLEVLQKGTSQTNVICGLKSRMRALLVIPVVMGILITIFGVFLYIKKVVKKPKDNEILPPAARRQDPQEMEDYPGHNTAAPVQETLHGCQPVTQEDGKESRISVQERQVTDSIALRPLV

maximum surface density of CD40L on anti-HA microbeads (molecules µm^-2) [1]	Substance	cell viability on Day 6 of B cells activated by αCD40 [2]
27000	anti-HA peptide antibody covalently attached to superparamagnetic microbeads (Pierce)	–
–	anti-CD40 antibody (clone 1C10, eBioscience)	2 to 5%
